In paper PMC2935386:

Target: fluorescein-labelled zinc finger region of GATA2 (GATA2-Zf), residues 291-412 (UniProt P23769)
Assay: fluorescence polarisation; fluorescence anisotropy; 10nM fluorescein-labeled GATA2-Zf titrated with unlabeled, unliganded TR DBD-LBD or TR DBD, 1nM to 10.000nM; 10°C, 50mM NaCl, 20mM Hepes pH8.0, 3mM dithiothreitol, 5% glycerol

Chain of fluorescein-labelled zinc finger region of GATA2 (GATA2-Zf), residues 291-412 (P23769 291-412): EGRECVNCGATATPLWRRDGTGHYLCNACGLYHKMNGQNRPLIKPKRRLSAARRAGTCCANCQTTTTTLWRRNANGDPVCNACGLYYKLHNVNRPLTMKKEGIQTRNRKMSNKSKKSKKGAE

## human TRβ1ΔAB/EF (TR DBD), thyroid hormone receptor β1 residues 102-198, poly-histidine construct (from UniProt P10828-1 102-198) (domain or fragment)
  Kd: 1.93 µM
